The text below walks through data of publication PMC3902928, “Nuclear ubiquitination by FBXL5 modulates Snail1 DNA binding and stability” (Nucleic Acids Research, 2013).

One test has as its target GST-FBXL5 (pGEX-6P-1) (UniProt Q9UKA1). Nature of the test: pull-down; GST or GST-FBXL5 protein on glutathione-sepharose with extracts from transfected HEK293T cells; western blot.
Test [1] has as its target T1, 3xFlag-FBXL5 (baculovirus) (UniProt Q9UKA1 1-691).
T1 construct: FBXL5; pFastBac1 3xFlag-FBXL5 provided by Dr Bruick; source: also co-infected with 6xHis-Skp1, HA-Cullin1 and Rbx1 for the SCF^FBXL5 complex; not shown: 3xFlag, N-terminal, kept
T1 sequence (looked up): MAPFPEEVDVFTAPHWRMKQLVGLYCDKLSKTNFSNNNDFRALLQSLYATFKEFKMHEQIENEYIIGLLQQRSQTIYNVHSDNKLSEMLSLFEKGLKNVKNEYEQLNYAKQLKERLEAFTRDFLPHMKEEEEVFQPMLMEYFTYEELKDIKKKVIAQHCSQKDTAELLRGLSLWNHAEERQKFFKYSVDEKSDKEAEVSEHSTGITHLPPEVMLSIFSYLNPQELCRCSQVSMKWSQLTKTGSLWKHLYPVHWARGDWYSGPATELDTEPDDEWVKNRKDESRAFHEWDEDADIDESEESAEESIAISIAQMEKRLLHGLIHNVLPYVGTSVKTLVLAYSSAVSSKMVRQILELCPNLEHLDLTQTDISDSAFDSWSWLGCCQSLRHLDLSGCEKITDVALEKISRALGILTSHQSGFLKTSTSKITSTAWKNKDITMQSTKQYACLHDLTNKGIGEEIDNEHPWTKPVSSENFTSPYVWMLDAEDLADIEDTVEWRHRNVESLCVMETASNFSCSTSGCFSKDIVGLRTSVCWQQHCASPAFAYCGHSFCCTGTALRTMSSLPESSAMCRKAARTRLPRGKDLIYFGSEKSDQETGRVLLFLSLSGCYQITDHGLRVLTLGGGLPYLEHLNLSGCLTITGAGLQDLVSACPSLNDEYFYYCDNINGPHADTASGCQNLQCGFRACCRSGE
In words: pull-down; 0.2 pmol 3xFlag-FBXL5 incubated with 2.5 pmol GST or GST-Snail1 as baits on glutathione-sepharose; western blot. As to conditions: both partners purified.

As for “GFP-Snail1CT ΔZnF1 (from UniProt Q02085 181-264) (domain or fragment)”, the decrease of binding against the full C-terminal domain in the test with GST-FBXL5 (pGEX-6P-1) was found to be 45%.
The same measure, in the same setting: to “GFP-Snail1CT ΔZnF1-2 (from UniProt Q02085 209-264) (domain or fragment)” belongs 80%.
As to “GFP-Snail1CT ΔZnF3-4 (from UniProt Q02085 152-208) (domain or fragment)”, the decrease of binding against the full C-terminal domain with GST-FBXL5 (pGEX-6P-1) is above 50%.

B1: GST-Snail1-HA (baculovirus) (natural protein, UniProt Q02085 1-264, looked up)
chain: MPRSFLVRKPSDPRRKPNYSELQDACVEFTFQQPYDQAHLLAAIPPPEVLNPAASLPTLIWDSLLVPQVRPVAWATLPLRESPKAVELTSLSDEDSGKSSQPPSPPSPAPSSFSSTSASSLEAEAFIAFPGLGQLPKQLARLSVAKDPQSRKIFNCKYCNKEYLSLGALKMHIRSHTLPCVCTTCGKAFSRPWLLQGHVRTHTGEKPFSCSHCNRAFADRSNLRAHLQTHSDVKRYQCQACARTFSRMSLLHKHQESGCSGGPR
notes: Snail1; insert subcloned from pcDNA3-Snail1-HA through pEBG-2T into pFastBac1; source: Sf9, baculovirus-infected, purified; not shown: GST, N-terminal, kept
As for B1, the binding result in test [1] is listed as “binds”.
